Data from the Immune Epitope Database (IEDB).

Tests used:
HLA-B*51:01 = assay: IEDB peptide-MHC binding, purified MHC/competitive/radioactivity; filed as Kd, often an IC50 or EC50 that approximates it; ≥ and ≤ were set here for values at or beyond the usual limits of such assays
HLA-B*07:02 = assay: as above
HLA-B*35:01 = assay: as above
HLA-B*53:01 = assay: as above
HLA-B*54:01 = assay: as above
HLA-A*02:01 = assay: as above
HLA-B*15:03 = assay: as above
HLA-A*02:06 = assay: as above; settings: source organism: Vaccinia virus WR
HLA-A*02:03 = assay: as above; settings: source organism: Vaccinia virus WR
HLA-A*02:02 = assay: as above; settings: source organism: Vaccinia virus WR
HLA-A*32:01 = assay: as above; settings: source organism: Vaccinia virus WR
HLA-A*03:01 [1] = assay: IEDB peptide-MHC binding, purified MHC/direct/fluorescence; filed as Kd, often an IC50 or EC50 that approximates it; ≥ and ≤ were set here for values at or beyond the usual limits of such assays
HLA-A*11:01 = assay: as above
HLA-A*31:01 = assay: IEDB peptide-MHC binding, purified MHC/competitive/fluorescence; filed as Kd, often an IC50 or EC50 that approximates it; ≥ and ≤ were set here for values at or beyond the usual limits of such assays
HLA-A*03:01 [2] = assay: as above
HLA-A*30:01 = assay: IEDB peptide-MHC binding, purified MHC/competitive/radioactivity; filed as Kd, often an IC50 or EC50 that approximates it; ≥ and ≤ were set here for values at or beyond the usual limits of such assays; settings: source organism: Vaccinia virus WR
[3] = source organism: Vaccinia virus WR
[4] = source organism: Vibrio vulnificus
[5] = source organism: Desulfitobacterium hafniense DCB-2
[6] = source organism: Bacillus anthracis str. Tsiankovskii-I
[7] = source organism: Orthohantavirus dobravaense
[8] = source organism: Mammarenavirus juninense
[9] = source organism: Triticum aestivum

IPSTVKTNLY
Kd (HLA-B*51:01; [3]): ≥ 69600 nM
Kd (HLA-B*07:02; [3]): ≥ 25600 nM
Kd (HLA-B*35:01; [3]): 248 nM
Kd (HLA-B*53:01; [3]): 213 nM
Kd (HLA-B*54:01; [3]): 10300 nM

TPLISFFGLF
Kd (HLA-B*51:01; [3]): 4970 nM
Kd (HLA-B*07:02; [3]): 1140 nM
Kd (HLA-B*35:01; [3]): 416 nM
Kd (HLA-B*53:01; [3]): 31.1 nM
Kd (HLA-B*54:01; [3]): 3960 nM

VLKGLYNFA
Kd (HLA-A*02:01; source organism: Lassa virus Josiah): 6250 nM

LLTTPKFTV
Kd (HLA-A*02:01; source organism: Human alphaherpesvirus 1 strain 17): 500 nM

ANVNARNRF
Kd (HLA-B*15:03; [3]): 552 nM

IMRNFLRSI
Kd (HLA-A*02:06): 3920 nM
Kd (HLA-A*02:03): 0.398 nM
Kd (HLA-B*15:03; [3]): 106 nM
Kd (HLA-A*02:02): 485 nM

ILFYFANGI
Kd (HLA-A*32:01): 92.5 nM
Kd (HLA-B*15:03; [3]): 139 nM

KGNVSALVK
Kd (HLA-A*03:01 [1]; [4]): 1160 nM
Kd (HLA-A*11:01; [4]): 184 nM
Kd (HLA-A*31:01; source organism: Vibrio vulnificus YJ016): ≥ 20000 nM

KTHESHLVR
Kd (HLA-A*11:01; source organism: Yellow fever virus 17D): 35.6 nM
Kd (HLA-A*31:01; source organism: Yellow fever virus): 21.2 nM

VPEFAKQYV
Kd (HLA-B*51:01; [3]): 718 nM
Kd (HLA-B*07:02; [3]): 128 nM
Kd (HLA-B*35:01; [3]): ≥ 32600 nM
Kd (HLA-B*53:01; [3]): 5150 nM
Kd (HLA-B*54:01; [3]): 1600 nM

AMKVDANYF
Kd (HLA-B*15:03; [3]): 0.149 nM

LSISCPNSL
Kd (HLA-B*15:03; [3]): 256 nM

ALFAGDLYR
Kd (HLA-A*03:01 [2]; [5]): 12.9 nM
Kd (HLA-A*31:01; [5]): 3.9 nM

LPEETNIGCA
Kd (HLA-B*51:01; [3]): ≥ 69600 nM
Kd (HLA-B*07:02; [3]): ≥ 20700 nM
Kd (HLA-B*35:01; [3]): 8680 nM
Kd (HLA-B*53:01; [3]): 2080 nM
Kd (HLA-B*54:01; [3]): 243 nM

QPEKEIPEY
Kd (HLA-B*51:01; [3]): ≥ 37700 nM
Kd (HLA-B*07:02; [3]): ≥ 36900 nM
Kd (HLA-B*35:01; [3]): 15.6 nM
Kd (HLA-B*53:01; [3]): 45.2 nM
Kd (HLA-B*54:01; [3]): ≥ 43700 nM

IISYFIFNR
Kd (HLA-A*03:01 [2]; [6]): 304 nM
Kd (HLA-A*31:01; [6]): 22.5 nM

KPIMSMGDII
Kd (HLA-B*51:01; [3]): 425 nM
Kd (HLA-B*07:02; [3]): 6.49 nM
Kd (HLA-B*35:01; [3]): 622 nM
Kd (HLA-B*53:01; [3]): 90.7 nM
Kd (HLA-B*54:01; [3]): 1980 nM

RQFEKDRSF
Kd (HLA-B*15:03; [3]): 0.143 nM

VTYDYIIPK
Kd (HLA-A*03:01 [1]; [7]): 50.8 nM
Kd (HLA-A*11:01; [7]): 1.2 nM
Kd (HLA-A*31:01; source organism: Kurkino virus): 42.4 nM

FSVSFSPSL
Kd (HLA-B*15:03; source organism: Vaccinia virus Copenhagen): 21.7 nM

TPDNFSSLI
Kd (HLA-B*51:01; [8]): 1710 nM
Kd (HLA-B*07:02; [8]): 11300 nM
Kd (HLA-B*35:01; [8]): 15300 nM
Kd (HLA-B*53:01; [8]): 372 nM
Kd (HLA-B*54:01; [8]): ≥ 78100 nM

RSKDTHVFA
Kd (HLA-B*15:03; [3]): 182 nM
Kd (HLA-A*30:01): 0.0187 nM

LMWITQCFL
Kd (HLA-A*02:01; source organism: Homo sapiens): 78 nM

QPFRPQQPY
Kd (HLA-B*51:01; [9]): ≥ 77500 nM
Kd (HLA-B*07:02; [9]): ≥ 77500 nM
Kd (HLA-B*35:01; [9]): 296 nM
Kd (HLA-B*53:01; [9]): ≥ 35200 nM
Kd (HLA-B*54:01; [9]): ≥ 78100 nM

VVYIILAPK
Kd (HLA-A*11:01; source organism: Mycobacterium tuberculosis): 27.4 nM
Kd (HLA-A*31:01; source organism: Mycobacterium leprae): 300 nM

PPCQCTVQEF
Kd (HLA-B*51:01; [3]): ≥ 69600 nM
Kd (HLA-B*07:02; [3]): ≥ 45300 nM
Kd (HLA-B*35:01; [3]): ≥ 23400 nM
Kd (HLA-B*53:01; [3]): 5150 nM
Kd (HLA-B*54:01; [3]): ≥ 69900 nM

VQSFKINIF
Kd (HLA-B*15:03; [3]): 51.3 nM
